Tests used:
Assay type in all cases: biochemical
[1] = HTP-analysis of yeast culture supernatants, no challenge (MUGal hydrolysis); settings: activity of the variant/activity of Rd4BB (SEQ ID NO: 15)
In short: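 Activity read as 4-methylumbelliferyl α-D-galactopyranoside hydrolysis: fluorescence (355/448 nm) after sodium carbonate stop, following 30-180 min at 37° C with 2 mM MUGal stock at pH 4.6–4.8. Enzyme source is unchallenged culture supernatant of INVSc1 yeast expressing GLA variants, grown 66-84 h at 30° C.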

[2] = HTP-analysis of supernatants pretreated with base (MUGal hydrolysis); settings: activity of the variant/activity of Rd4BB (SEQ ID NO: 15); challenge at pH 9.65
In short: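 GLA variants were secreted by transformed INVSc1 yeast grown 66-84 h at 30° C. Supernatants were exposed to neutral-to-basic buffers (pH 7.0-9.7) at 37° C for 1-18 h, then assayed with MUGal in acidic citrate/McIlvaine buffer, with fluorescence read after quenching.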

[3] = HTP-analysis of supernatants pretreated with acid (MUGal hydrolysis); settings: activity of the variant/activity of Rd4BB (SEQ ID NO: 15); challenge at pH 3.7
In short: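 Yeast INVSc1 supernatant, GLA variants; acid challenge: McIlvaine pH 3.3-4.3, 37° C., 1-3 h. Assay: MUGal in McIlvaine pH 4.8 plus citrate pH 4.3, 37° C., 30-180 min, Na2CO3 stop, Ex 355/Em 448 nm.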

B1: 417 (protein)
chain: LDNGLARTPTMGWLHWERFMCNLDCQEEPDSCISEKLFMEMAERMVSEGWKDAGYEYLCIDDCWMAPQRDSEGRLQADPQRFPHGIRQLANYVHSKGLKLGIYADVGNKTCAGFPGSFGYYDIDAQTFADWGVDLLKFDGCYCDSLENLADGYKHMSLALNSTGRSIVYSCEWPLYMWPFQKPNYTEIRQYCNHWRNFADIDDSWKSIKSILDWTSRNQERIVDVAGPGGWNDPDMLVIGNFGLSWDQQVTQMALWAIMAAPLFMSNDLRHISPQAKALLQDKDVIAINQDPLGKQGYQLRKGDNFEVWERPLSGDAWAVAIINRQEIGGPRSYTIPVASLGKGVACNPACFITQLLPVKRQLGFYNWTSRLKSHINPTGTVLLQLENTMQMSLKDLL
modifications: Synthetic Polypeptide sequence of Variant No. 417 of mature Human GLA
- Relative Activity of GLA Variants After No Challenge (NC) [1]: + (0.5 to 1.5 relative activity over Rd4BB (SEQ ID NO: 15))
- Relative Activity of GLA Variants After Challenge at pH 9.65 [2]: − (<0.5 relative activity over Rd4BB (SEQ ID NO: 15))
- Relative Activity of GLA Variants After Challenge at pH 3.7 [3]: + (0.5 to 1.5 relative activity over Rd4BB (SEQ ID NO: 15))

B2: 420 (protein)
chain: LDNGLARTPTMGWLHWERFMCNLDCQEEPDSCISEKLFMEMAERMVSEGWKDAGYEYLCIDDCWMAPQRDSEGRLQADPQRFPHGIRQLANYVHSKGLKLGIYADVGNKTCAGFPGSFGYYDIDAQTFADWGVDLLKFDGCYCDSLENLADGYKHMSLALNRTGRTIVYSCEWPLYMWPFQKPNYTEIRQYCNHWRNFADIDDSWKSIKSILDWTSRNQERIVDVAGPGGWNDPDMLVIGNFGLSWDQQVTQMALWAIMAAPLFMSNDLRHISPQAKALLQDKDVIAINQDPLGKQGYQLRKGDNFEVWERPLSGDAWAVAIINRQEIGGPRSYTIPVASLGKGVACNPACFITQLLPVKRQLGFYNWTSRLKSHINPTGTVLLQLENTMQMSLKDLL
modifications: Synthetic Polypeptide sequence of Variant No. 420 of mature Human GLA
- Relative Activity of GLA Variants After No Challenge (NC) [1]: + (0.5 to 1.5 relative activity over Rd4BB (SEQ ID NO: 15))
- Relative Activity of GLA Variants After Challenge at pH 9.65 [2]: − (<0.5 relative activity over Rd4BB (SEQ ID NO: 15))
- Relative Activity of GLA Variants After Challenge at pH 3.7 [3]: ++ (>1.5 to 2.5 relative activity over Rd4BB (SEQ ID NO: 15))

B3: 422 (protein)
chain: LDNGLARTPTMGWLHWERFMCNLDCQEEPDSCISEKLFMEMAERMVSEGWKDAGYEYLCIDDCWMAPQRDSEGRLQADPQRFPHGIRQLANYVHSKGLKLGIYADVGNKTCAGFPGSFGYYDIDAQTFADWGVDLLKFDGCYCDSLENLADGYKHMSGALNRTGRSIVYSCEWPLYMWPFQKPNYTEIRQYCNHWRNFADIDDSWKSIKSILDWTSRNQERIVDVAGPGGWNDPDMLVIGNFGLSWDQQVTQMALWAIMAAPLFMSNDLRHISPQAKALLQDKDVIAINQDPLGKQGYQLRKGDNFEVWERPLSGDAWAVAIINRQEIGGPRSYTIPVASLGKGVACNPACFITQLLPVKRQLGFYNWTSRLKSHINPTGTVLLQLENTMQMSLKDLL
modifications: Synthetic Polypeptide sequence of Variant No. 422 of mature Human GLA
- Relative Activity of GLA Variants After No Challenge (NC) [1]: + (0.5 to 1.5 relative activity over Rd4BB (SEQ ID NO: 15))
- Relative Activity of GLA Variants After Challenge at pH 9.65 [2]: − (<0.5 relative activity over Rd4BB (SEQ ID NO: 15))
- Relative Activity of GLA Variants After Challenge at pH 3.7 [3]: + (0.5 to 1.5 relative activity over Rd4BB (SEQ ID NO: 15))

B4: 423 (protein)
chain: LDNGLARTPTMGWLHWERFMCNLDCQEEPDSCISEKLFMEMAERMVSEGWKDAGYEYLCIDDCWMAPQRDSEGRLQADPQRFPHGIRQLANYVHSKGLKLGIYADVGNKTCAGFPGSFGYYDIDAQTFADWGVDLLKFDGCYCDSLENLADGYKHMSLALNATGRSIVYSCEWPLYMWPFQKPNYTEIRQYCNHWRNFADIDDSWKSIKSILDWTSRNQERIVDVAGPGGWNDPDMLVIGNFGLSWDQQVTQMALWAIMAAPLFMSNDLRHISPQAKALLQDKDVIAINQDPLGKQGYQLRKGDNFEVWERPLSGDAWAVAIINRQEIGGPRSYTIPVASLGKGVACNPACFITQLLPVKRQLGFYNWTSRLKSHINPTGTVLLQLENTMQMSLKDLL
modifications: Synthetic Polypeptide sequence of Variant No. 423 of mature Human GLA
- Relative Activity of GLA Variants After No Challenge (NC) [1]: + (0.5 to 1.5 relative activity over Rd4BB (SEQ ID NO: 15))
- Relative Activity of GLA Variants After Challenge at pH 9.65 [2]: + (0.5 to 1.5 relative activity over Rd4BB (SEQ ID NO: 15))
- Relative Activity of GLA Variants After Challenge at pH 3.7 [3]: + (0.5 to 1.5 relative activity over Rd4BB (SEQ ID NO: 15))

B5: 421 (protein)
chain: LDNGLARTPTMGWLHWERFMCNLDCQEEPDSCISEKLFMEMAERMVSEGWKDAGYEYLCIDDCWMAPQRDSEGRLQADPQRFPHGIRQLANYVHSKGLKLGIYADVGNKTCAGFPGSFGYYDIDAQTFADWGVDLLKFDGCYCDSLENLADGYKHMSLALNQTGRSIVYSCEWPLYMWPFQKPNYTEIRQYCNHWRNFADIDDSWKSIKSILDWTSRNQERIVDVAGPGGWNDPDMLVIGNFGLSWDQQVTQMALWAIMAAPLFMSNDLRHISPQAKALLQDKDVIAINQDPLGKQGYQLRKGDNFEVWERPLSGDAWAVAIINRQEIGGPRSYTIPVASLGKGVACNPACFITQLLPVKRQLGFYNWTSRLKSHINPTGTVLLQLENTMQMSLKDLL
modifications: Synthetic Polypeptide sequence of Variant No. 421 of mature Human GLA
- Relative Activity of GLA Variants After No Challenge (NC) [1]: + (0.5 to 1.5 relative activity over Rd4BB (SEQ ID NO: 15))
- Relative Activity of GLA Variants After Challenge at pH 9.65 [2]: − (<0.5 relative activity over Rd4BB (SEQ ID NO: 15))
- Relative Activity of GLA Variants After Challenge at pH 3.7 [3]: + (0.5 to 1.5 relative activity over Rd4BB (SEQ ID NO: 15))

B6: 418 (protein)
chain: LDNGLARTPTMGWLHWERFMCNLDCQEEPDSCISEKLFMEMAERMVSEGWKDAGYEYLCIDDCWMAPQRDSEGRLQADPQRFPHGIRQLANYVHSKGLKLGIYADVGNKTCAGFPGSFGYYDIDAQTFADWGVDLLKFDGCYCDSLENLADGYKHMSLALERTGRSIVYSCEWPLYMWPFQKPNYTEIRQYCNHWRNFADIDDSWKSIKSILDWTSRNQERIVDVAGPGGWNDPDMLVIGNFGLSWDQQVTQMALWAIMAAPLFMSNDLRHISPQAKALLQDKDVIAINQDPLGKQGYQLRKGDNFEVWERPLSGDAWAVAIINRQEIGGPRSYTIPVASLGKGVACNPACFITQLLPVKRQLGFYNWTSRLKSHINPTGTVLLQLENTMQMSLKDLL
modifications: Synthetic Polypeptide sequence of Variant No. 418 of mature Human GLA
- Relative Activity of GLA Variants After No Challenge (NC) [1]: + (0.5 to 1.5 relative activity over Rd4BB (SEQ ID NO: 15))
- Relative Activity of GLA Variants After Challenge at pH 9.65 [2]: − (<0.5 relative activity over Rd4BB (SEQ ID NO: 15))
- Relative Activity of GLA Variants After Challenge at pH 3.7 [3]: + (0.5 to 1.5 relative activity over Rd4BB (SEQ ID NO: 15))

B7: 363 (protein)
chain: LDNGLARTPTMGWLHWERFMCNLDCQEEPDSCISEKLFMEMAERMVDEGWKDAGYEYLCIDDCWMAPQRDSEGRLQADPQRFPHGIRQLANYVHSKGLKLGIYADVGNKTCAGFPGSFGYYDIDAQTFADWGVDLLKFDGCYCDSLENLADGYKHMSLALNRTGRSIVYSCEWPLYMWPFQKPNYTEIRQYCNHWRNFADIDDSWKSIKSILDWTSRNQERIVDVAGPGGWNDPDMLVIGNFGLSWDQQVTQMALWAIMAAPLFMSNDLRHISPQAKALLQDKDVIAINQDPLGKQGYQLRKGDNFEVWERPLSGDAWAVAIINRQEIGGPRSYTIPVASLGKGVACNPACFITQLLPVKRQLGFYNWTSRLKSHINPTGTVLLQLENTMQMSLKDLL
modifications: Synthetic Polypeptide sequence of Variant No. 363 of mature Human GLA
- Relative Activity of GLA Variants After No Challenge (NC) [1]: + (0.5 to 1.5 relative activity over Rd4BB (SEQ ID NO: 15))
- Relative Activity of GLA Variants After Challenge at pH 9.65 [2]: + (0.5 to 1.5 relative activity over Rd4BB (SEQ ID NO: 15))
- Relative Activity of GLA Variants After Challenge at pH 3.7 [3]: + (0.5 to 1.5 relative activity over Rd4BB (SEQ ID NO: 15))

B8: 419 (protein)
chain: LDNGLARTPTMGWLHWERFMCNLDCQEEPDSCISEKLFMEMAERMVSEGWKDAGYEYLCIDDCWMAPQRDSEGRLQADPQRFPHGIRQLANYVHSKGLKLGIYADVGNKTCAGFPGSFGYYDIDAQTFADWGVDLLKFDGCYCDSLENLADGYKHMSLALNRTGREIVYSCEWPLYMWPFQKPNYTEIRQYCNHWRNFADIDDSWKSIKSILDWTSRNQERIVDVAGPGGWNDPDMLVIGNFGLSWDQQVTQMALWAIMAAPLFMSNDLRHISPQAKALLQDKDVIAINQDPLGKQGYQLRKGDNFEVWERPLSGDAWAVAIINRQEIGGPRSYTIPVASLGKGVACNPACFITQLLPVKRQLGFYNWTSRLKSHINPTGTVLLQLENTMQMSLKDLL
modifications: Synthetic Polypeptide sequence of Variant No. 419 of mature Human GLA
- Relative Activity of GLA Variants After No Challenge (NC) [1]: + (0.5 to 1.5 relative activity over Rd4BB (SEQ ID NO: 15))
- Relative Activity of GLA Variants After Challenge at pH 9.65 [2]: + (0.5 to 1.5 relative activity over Rd4BB (SEQ ID NO: 15))
- Relative Activity of GLA Variants After Challenge at pH 3.7 [3]: + (0.5 to 1.5 relative activity over Rd4BB (SEQ ID NO: 15))

Reference: US11278600B2, “Human alpha-galactosidase variants” (Codexis, Inc., priority 2014, dated 2022)
